One block for each molecule: values may come before it.
B2: full-length human OGT (O-GlcNAc transferase), C-terminal His6 (enzyme, UniProt O15294 1-1046, looked up)
chain: MASSVGNVADSTEPTKRMLSFQGLAELAHREYQAGDFEAAERHCMQLWRQEPDNTGVLLLLSSIHFQCRRLDRSAHFSTLAIKQNPLLAEAYSNLGNVYKERGQLQEAIEHYRHALRLKPDFIDGYINLAAALVAAGDMEGAVQAYVSALQYNPDLYCVRSDLGNLLKALGRLEEAKACYLKAIETQPNFAVAWSNLGCVFNAQGEIWLAIHHFEKAVTLDPNFLDAYINLGNVLKEARIFDRAVAAYLRALSLSPNHAVVHGNLACVYYEQGLIDLAIDTYRRAIELQPHFPDAYCNLANALKEKGSVAEAEDCYNTALRLCPTHADSLNNLANIKREQGNIEEAVRLYRKALEVFPEFAAAHSNLASVLQQQGKLQEALMHYKEAIRISPTFADAYSNMGNTLKEMQDVQGALQCYTRAIQINPAFADAHSNLASIHKDSGNIPEAIASYRTALKLKPDFPDAYCNLAHCLQIVCDWTDYDERMKKLVSIVADQLEKNRLPSVHPHHSMLYPLSHGFRKAIAERHGNLCLDKINVLHKPPYEHPKDLKLSDGRLRVGYVSSDFGNHPTSHLMQSIPGMHNPDKFEVFCYALSPDDGTNFRVKVMAEANHFIDLSQIPCNGKAADRIHQDGIHILVNMNGYTKGARNELFALRPAPIQAMWLGYPGTSGALFMDYIITDQETSPAEVAEQYSEKLAYMPHTFFIGDHANMFPHLKKKAVIDFKSNGHIYDNRIVLNGIDLKAFLDSLPDVKIVKMKCPDGGDNADSSNTALNMPVIPMNTIAEAVIEMINRGQIQITINGFSISNGLATTQINNKAATGEEVPRTIIVTTRSQYGLPEDAIVYCNFNQLYKIDPSTLQMWANILKRVPNSVLWLLRFPAVGEPNIQQYAQNMGLPQNRIIFSPVAPKEEHVRRGQLADVCLDTPLCNGHTTGMDVLWAGTPMVTMPGETLASRVAASQLTCLGCLELIAKNRQEYEDIAVKLGTDLEYLKKVRGKVWKQRISSPLFNTKQYTMELERLYLQMWEHYAAGNKPDHMIKPVEVTESA
notes: human O-GlcNAc transferase (OGT), full length, UniProt O15294; Scissor-shaped homodimer by cryo-EM; also called OGT WT; His6-tagged OGT; source: E. coli BL21 (DE3), purified (Ni-NTA, Resource Q, Superose 6); for the OGT-OGA complex co-expressed with OGA in BL21 (DE3); not shown: His6, C-terminal, kept

Key:
[1] = O-GlcNAc at S405
[2] = target: B2; assay: pull-down; GST pull-down: GST-OGA bait on Glutathione Sepharose 4B, His6-tagged OGT or mutants as prey; all proteins 1 mg/ml; 25 mM Tris pH 8.0, 150 mM NaCl, 2 mM DTT, 0.05% NP40; 2 h at 4 °C; SDS-PAGE with Coomassie staining; details: both partners purified
[3] = target: the molecule itself; assay: cryo-EM structure; single-particle cryo-EM of full-length human OGT alone, incubated with 1 mg/ml UDP-GlcNAc on ice; overall resolution 3.69 Å

Molecule: OGA (O-GlcNAcase): OGT H508A mutant bound to OGA
enzymatic_activity [1]: no change

binding result [2]: binds
B1: GST-OGA (residues 371-440) (domain or fragment, human, UniProt O60502 371-440, looked up)
chain: DVLYSPQMALKLALTEWLQEFGVPHQYSSRQVAHSGAKASVVDGTPLVAAPSLNATTVVTTVYQEPIMSQ
notes: human OGA, residues 371-440, UniProt O60502, cloned into pGEX-6P-1; also called GST-OGA fragment; source: E. coli BL21 (DE3), purified (Glutathione Sepharose 4B, Resource Q, Superose 6)

Molecule: B2
stoichiometry N [3]: 2

From paper PMC10618255, “Cryo-EM structure of human O-GlcNAcylation enzyme pair OGT-OGA complex” (Nature Communications, 2023)
